Assay: Apparent sialyltransferase kinetics, GalNAcαThr as acceptor
Type: biochemical
Method: Reactions were carried out in duplicate at 20° C. for 20 minutes in a total volume of 10 μL in a proper buffer at the optimal pH according to the pH profile of the wild-type enzyme (see, Ding, 2011, supra). When LacβMU was used as an acceptor, the conditions were: Tris-HCl buffer (200 mM, pH 8.0), enzyme (0.3 μM), varied concentrations of LacβMU (0.1, 0.25, 0.4, 1.0, 2.0, 4.0, and 6.0 mM) with a fixed concentration of CMP-Neu5Ac (1.0 mM) or varied concentrations of CMP-Neu5Ac (0.1, 0.25, 0.4, 1.0, 2.0, 4.0, and 6.0 mM) with a fixed concentration of LacβMU (1.0 mM). When GalNAcα2AA was used as an acceptor, the conditions were: NaOAc-HOAc buffer (200 mM, pH 5.0), enzyme (6 μM), varied concentrations of GalNAcα2AA (0.5, 0.8, 1.0, 2.0, 4.0, 8.0, and 10.0 mM) and a fixed concentration of CMP-Neu5Ac (4.0 mM) or varied concentrations of CMP-Neu5Ac (0.5, 1.0, 2.0, 4.0, 5.0, 8.0, and 10.0 mM) with a fixed concentration of GalNAcα2AA (1.0 mM). When GalNAcαSer was used as an acceptor, the conditions were: Tris-HCl buffer (200 mM, pH 8.0), enzyme (0.6 μM), varied concentrations of GalNAcαSer (0.1, 0.25, 0.5, 1.0, 2.0, 4.0, 8.0, and 10.0 mM) and a fixed concentration of CMP-Neu5Ac (2.0 mM). […]

B1: A366G: Photobacterium sp. JH-ISH-224 α2-6-sialyltransferase residues 15-501, A366G point mutation, C-terminal His6; SEQ ID NO: 2 (protein)
chain: CNNSEENTQSIIKNDINKTIIDEEYVNLEPINQSNISFTKHSWVQTCGTQQLLTEQNKESISLSVVAPRLDDDEKYCFDFNGVSNKGEKYITKVTLNVVAPSLEVYVDHASLPTLQQLMDIIKSEEENPTAQRYIAWGRIVPTDEQMKELNITSFALINNHTPADLVQEIVKQAQTKHRLNVKLSSNTAHSFDNLVPILKELNSFNNVTVTNIDLYDDGSAEYVNLYNWRDTLNKTDNLKIGKDYLEDVINGINEDTSNTGTSSVYNWQKLYPANYHFLRKDYLTLEPSLHELRDYIGDSLKQMQWDGFKKFNSKQQELFLSIVNFDKQKLQNEYNSSNLPNFVFTGTTVWGGNHEREYYAKQQINVINNAINESSPHYLGNSYDLFFKGHPGGGIINTLIMQNYPSMVDIPSKISFEVLMMTDMLPDAVAGIASSLYFTIPAEKIKFIVFTSTETITDRETALRSPLVQVMIKLGIVKEENVLFWA
modifications: C-terminal His6; Synthetic Psp26ST(15-501) A366G
  catalytic efficiency (kcat/Km) higher than the wild-type enzyme: 2.1 fold

— US9938510B2, “Photobacterium sp. alpha-2-6-sialyltransferase variants” (The Regents of the University of California, priority 2014, dated 2018)
